The record followed here is the supplement of paper PMC12042874.

± gives the uncertainty stated by the source.

This series in a line: amyloid nucleation score (Sup35N fusion, yeast selection) (log enrichment); library NNK3; higher = more nucleation; inactive = no reads after selection. The gist of the method: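 On medium lacking adenine and uracil, psi-negative yeast expressing peptides of 20 random codons fused to Sup35N were grown 7 days at 30°C after a 24-hour induction with 100 μM copper sulfate. Illumina sequencing of input and output plasmid inserts gave the reads, and sequences under 100 input reads were excluded. The nucleation score is the DiMSum log enrichment of output over input reads, centred on the mode score of non-aggregating sequences.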
Take LNIMVE: the amyloid nucleation score entry was “inactive”.

Take LNLETLISWLSVCPRGRTEE: the amyloid nucleation score result is “inactive”.

On to LNLLKLRKKAPHRPIPGRSG, for which the amyloid nucleation score entry is “inactive”.

Consider LNLNFKVRGL, for which the amyloid nucleation score came out at 0.654 ± 0.27.

Consider LNMGVTRLDLISLGWGSVSL, for which the amyloid nucleation score was -0.41 ± 0.75.

As to LNNWSKRVFLSPVPVWHSMS, the amyloid nucleation score is -0.619 ± 1.9.

In the case of LNSVKAGFINTKDPVMDSMC, the amyloid nucleation score was -0.254 ± 0.84.

As to LNTCNVFKYFVSGKRFREVG, the amyloid nucleation score result was “inactive”.

Consider LNTLGKNNIKRSILRRSLYY, for which the amyloid nucleation score result was “inactive”.

Turning to LNWLITYLGKR, the amyloid nucleation score turned out to be 2.24 ± 0.092.

LPFNGTGTAWCSAGAQLFGR showed an amyloid nucleation score of 0.837 ± 0.15.

As to LPLADLKGMASASFKDGKVF, the amyloid nucleation score entry is “inactive”.

In the case of LPLVVIFQLSTYVRQWYA, the amyloid nucleation score was 0.618 ± 0.28.

As for LPSICVSPI, the amyloid nucleation score result is “inactive”.

In the case of LPWTLGVFGLMY, the amyloid nucleation score entry is “inactive”.

LQANAI: the amyloid nucleation score entry is “inactive”.

With LQDKQCHVWDYASGIAYVVE, the amyloid nucleation score result is “inactive”.

Regarding LQHVIFSYLLVGASSFRFHP, the amyloid nucleation score result was “inactive”.

In the case of LQYLRDCEFCRYVCYCNWLY, the amyloid nucleation score was determined as 0.443 ± 0.34.

Consider LQYWSFKSSSYGGLDIYCEA, for which the amyloid nucleation score result was “inactive”.

On to LREQGRNTSR, for which the amyloid nucleation score entry is “inactive”.

Regarding LRFGHHMGYEWHLSRKVGSK, the amyloid nucleation score entry was “inactive”.

LRFNDYMC: the amyloid nucleation score entry is “inactive”.

On to LRGAVVVSEKTRVTTQCIAR, for which the amyloid nucleation score entry was “inactive”.

As to LRIKMGIYAHDLCAVIMYTL, the amyloid nucleation score came to 0.515 ± 0.35.

LRMFSRVGRNRCYNITSFTC: the amyloid nucleation score result is “inactive”.

For the substance LRQGWILVA, the amyloid nucleation score entry was “inactive”.

As to LRQQRHACAIMEVSG, the amyloid nucleation score result is “inactive”.

Turning to LRQVNQWVDVKASDPNGTAL, the amyloid nucleation score entry was “inactive”.

Consider LRRFWDRIPCFCLFHRFSFY, for which the amyloid nucleation score result was “inactive”.

For LRRYALGLSYCLEVK, the amyloid nucleation score entry was “inactive”.

Take LRVCTELRMVLDISYNVGNF: the amyloid nucleation score turned out to be 0.68 ± 0.18.

LRVRFTISWL showed an amyloid nucleation score of -0.471 ± 0.41.

Consider LRWCGSVFLFGGCRGTVVSW, for which the amyloid nucleation score entry was “inactive”.

As for LRWFAFSKSNIALGL, the amyloid nucleation score result was “inactive”.

On to LSAATYPL, for which the amyloid nucleation score entry was “inactive”.

Consider LSAMLDTDAYRGLW, for which the amyloid nucleation score entry was “inactive”.

In the case of LSCCSSGGGSTPVIAPTYYE, the amyloid nucleation score result is “inactive”.

LSCVRRSSLDSC: the amyloid nucleation score entry is “inactive”.

Consider LSCWNIRGWLRWS, for which the amyloid nucleation score entry is “inactive”.

On to LSDMNVNKRMCCMVRDSNMR, for which the amyloid nucleation score entry was “inactive”.

In the case of LSESYDRQRFKSTF, the amyloid nucleation score turned out to be 0.694 ± 0.21.

For LSEWI, the amyloid nucleation score result is “inactive”.

LSFTEY: the amyloid nucleation score result was “inactive”.

As for LSFYISPS, the amyloid nucleation score amounted to 0.748 ± 0.1.

As to LSGDLVCRKVFTRRCTSKWL, the amyloid nucleation score entry is “inactive”.

As for LSGFDFAL, the amyloid nucleation score result is “inactive”.

Regarding LSGVSWKLCVYCFTVRGAAL, the amyloid nucleation score turned out to be 0.863 ± 0.22.

On to LSHPTPQSCRHFVFNLKLSA, for which the amyloid nucleation score result is “inactive”.

Take LSLDLSPSNLNPRWFDTPFH: the amyloid nucleation score entry is “inactive”.

Consider LSLFSRSASFSSSLHMAMYH, for which the amyloid nucleation score result was “inactive”.

LSLNLRYHQPVNWNSRDTCL gave an amyloid nucleation score of 1.31 ± 0.12.

LSLNLSLNMKVKLYVYWGYR: the amyloid nucleation score entry was “inactive”.

In the case of LSLSM, the amyloid nucleation score result was “inactive”.

In the case of LSLSRRGYQLLLEASGRCYV, the amyloid nucleation score entry is “inactive”.

LSNTRLRNMFSRDRGASLEG: the amyloid nucleation score entry is “inactive”.

In the case of LSPARQLTLLGDKNPANNIL, the amyloid nucleation score result is “inactive”.

For LSPYRYSCYPYPTYSRYP, the amyloid nucleation score stood at 0.44 ± 0.24.

For the substance LSRMTRESKPQEISAQARLD, the amyloid nucleation score was 1.14 ± 0.13.

Turning to LSSCKLSYSKQLSRTVNQL, the amyloid nucleation score result was “inactive”.

Regarding LSSDNCTFPFHRLGGYKQSY, the amyloid nucleation score entry was “inactive”.

LSSFLLFLAELCWVLKQRMC: the amyloid nucleation score result was “inactive”.

LSSGG displayed an amyloid nucleation score of 0.088 ± 0.4.

Consider LSSWTNLLIWSLNLCPVMFV, for which the amyloid nucleation score result was “inactive”.

Turning to LSTCFTGAFRVSNREKSNVS, the amyloid nucleation score is 0.059 ± 0.43.

As for LSTSL, the amyloid nucleation score entry was “inactive”.

For LSTYPDI, the amyloid nucleation score result is “inactive”.

LSVFDMGIRKM: the amyloid nucleation score entry was “inactive”.

For the substance LSVLWYSWWGFNTG, the amyloid nucleation score result is “inactive”.

Consider LSWIWNLANSVKDNMGGMRM, for which the amyloid nucleation score result is “inactive”.

As to LSYESCFGSHVGMRAEGCSR, the amyloid nucleation score was -0.485 ± 1.2.

In the case of LSYFSLFYADGRHFRCLLDN, the amyloid nucleation score result is “inactive”.

For LSYLC, the amyloid nucleation score result was “inactive”.

As for LSYVRCVRWWY, the amyloid nucleation score result is “inactive”.

As to LTLISGIAFLCLLLDNHNTV, the amyloid nucleation score entry was “inactive”.

For the substance LTPSECMENYRGFSDMRRCP, the amyloid nucleation score result was “inactive”.

As for LTYHWNVVQLTLGNCFSGWG, the amyloid nucleation score came to 2.55 ± 0.059.

Consider LVASSRW, for which the amyloid nucleation score entry was “inactive”.

On to LVDAVHLCSNVNYTFCTNAG, for which the amyloid nucleation score was determined as 1.3 ± 0.074.

As to LVESDLYVCTTVRGQVSMKG, the amyloid nucleation score result was “inactive”.

In the case of LVGMDTGIVNDSIDGPGYWV, the amyloid nucleation score result is “inactive”.

Turning to LVHLEVGQGSSVVEHLRCVL, the amyloid nucleation score result is “inactive”.

In the case of LVIGVYWDRSPLVSSPFPLN, the amyloid nucleation score result was “inactive”.

On to LVLDINTFTDIGSRKRWSHG, for which the amyloid nucleation score result was “inactive”.

Take LVLTSPFRYSIV: the amyloid nucleation score entry was “inactive”.

LVLVSTFMHVGDVCYHMYY registered an amyloid nucleation score of 2.99 ± 0.057.

LVNEKNIRVEVCIAYACQDS gave an amyloid nucleation score of -0.053 ± 0.33.

As for LVNMHLSLSYGDLSRRQFVN, the amyloid nucleation score result is “inactive”.

As for LVNTCKNSFLVVLHF, the amyloid nucleation score came to 2.09 ± 0.065.

Consider LVPFLVDIHVGWDISLKVVR, for which the amyloid nucleation score entry is “inactive”.

LVQIPYTDDVRLKGMINP: the amyloid nucleation score result was “inactive”.

For LVRLGMQRCRPLT, the amyloid nucleation score result is “inactive”.

As to LVSVVYLEGTGGDYDFFIAT, the amyloid nucleation score was determined as 2.01 ± 0.079.

Take LVTDGMRRSEICLMVYSN: the amyloid nucleation score result was “inactive”.

For LVTETLFYCH, the amyloid nucleation score entry is “inactive”.

Take LVTGNVYVF: the amyloid nucleation score result was “inactive”.

For LVVCGVRWSMFIGIS, the amyloid nucleation score entry was “inactive”.

Regarding LVWVKLAANAFVV, the amyloid nucleation score came out at 1.4 ± 0.074.
